# Reference: patent publication US11726088B2, “Sirtuin 4 (SIRT4) lipoamidase activity and uses thereof” (THE TRUSTEES OF PRINCETON UNIVERSITY, priority 2014, dated 2023)
# Primed or numbered codes have the meaning given here. Ends that are not written are not given here. * marks the point of attachment. lipoyl″ = O=C(CCCC[C@@H]1CCSS1)*
# Legend:
# SIRT4 [1] = target: T1, SIRT4 (Homo sapiens, UniProt Q9Y6E7); experiment: HPLC-based SIRT4 kinetics assays (steady-state, acyl-modified peptide substrates); type: biochemical
# T1 construct: 6xHis (followed by human rhinovirus 3C protease site) (N); made in house; host or cells: E. coli BL21(DE3), co-expressed with GroEL and GroES
# T1 sequence (Q9Y6E7 33-314): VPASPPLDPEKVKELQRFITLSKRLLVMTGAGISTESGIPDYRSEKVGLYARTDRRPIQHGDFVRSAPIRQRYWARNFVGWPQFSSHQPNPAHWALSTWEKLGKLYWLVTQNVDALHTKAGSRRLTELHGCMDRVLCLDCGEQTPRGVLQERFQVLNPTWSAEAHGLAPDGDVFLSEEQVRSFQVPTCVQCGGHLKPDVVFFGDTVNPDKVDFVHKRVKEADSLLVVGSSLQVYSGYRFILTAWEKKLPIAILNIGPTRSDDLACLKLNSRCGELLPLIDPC
# From the text: Recombinant SIRT4 protein expression and purification. N-terminally truncated human Sirt4 (33-314 of SEQ ID NO: 2) was cloned into a derivative of pET-15b containing a human rhinovirus 3C Protease cleavage site in place of its thrombin cleavage site. 6×His-Sirt4 was co-expressed with GroEL and GroES in BL21(DE3) E. coli in order to promote proper protein folding. Protein was purified using immobilized-metal affinity chromatography (IMAC) followed by anion-exchange chromatography to remove associated folding chaperones. For some experiments the His-tag was removed using 3C protease. Protein was concentrated, snap frozen in N2(l), and stored at −80° C. HPLC-based SIRT4 kinetics assays. SIRT4 kinetic assays were essentially performed as described by others^3,4. Briefly, enzyme reactions (20 μL) were performed in 50 mM Tris, pH 8.0, containing 5 μM recombinant SIRT4 and varying concentrations (0 to 2500 μM) of H3K9- or DLAT-modified peptides with either acetyl-lysine, biotinyl-lysine, or lipoyl-lysine. Reactions were initiated by addition of NAD (1 mM) and incubated at 25° C. for between 30-120 min, depending on substrate-specific reaction rates and to maintain steady-state conditions. Reactions were quenched with formic acid to a final concentration of 0.5% (v/v) and analyzed by HPLC-UV detection (Ultimate 3000 RSLC/VWD-3400). Substrate and product were separated by reverse-phase chromatography (Acclaim PepMap RSLC, 75 μm×15 cm) at 0.75 μL/min. Product concentration was measured by peak integration of A280 signals. Initial reaction velocities were determined in at least duplicate and fit to a modified Briggs-Haldane equation, which substituted kcat×[SIRT4] for Vmax and allowed determination of kinetic parameters, kcat, Km and kcat/Km and their associated error (±SEM), using GraphPad Prism 5. SIRT4's catalytic efficiency towards the various acyl-modified peptide substrates was assessed (Table 1 below).
# SIRT4 [2] = target: T1, SIRT4; experiment: LC-MS-based in vitro peptide deacylation assay; type: biochemical; details: 5 μM SIRT4, 10 uM peptide, with NAD, 1 hr at 37° C.
# From the text: Recombinant SIRT4 protein expression and purification. N-terminally truncated human Sirt4 (33-314 of SEQ ID NO: 2) was cloned into a derivative of pET-15b containing a human rhinovirus 3C Protease cleavage site in place of its thrombin cleavage site. 6×His-Sirt4 was co-expressed with GroEL and GroES in BL21(DE3) E. coli in order to promote proper protein folding. Protein was purified using immobilized-metal affinity chromatography (IMAC) followed by anion-exchange chromatography to remove associated folding chaperones. For some experiments the His-tag was removed using 3C protease. Protein was concentrated, snap frozen in N2(l), and stored at −80° C.
# LC-MS-based in vitro peptide deacylation assay. The ability of SIRT4 to hydrolyze various acyl-lysine modifications was measured using LC-MS. In 20 μL reaction volume, 10 uM peptide (lipoyl-, biotinyl-, or acetyl-lysine) was incubated with increasing concentrations of SIRT4 (0.5 μM, 2.5 μM, and 5 μM), with or without NAD, in 50 mM TrisHCl, pH 8, 137 mM NaCl, 2.7 mM KCl and 1 mM MgCl2, for 1 hr at 37° C. Reactions were quenched with 25 μL of 2% TFA and an internal control peptide was spiked in to monitor for run-to-run variability. Reaction products were desalted, eluted, concentrated and analyzed by nano-LC-MS/MS, as above, but altered LC gradients. A 30 min linear gradient from 4-40% B was used for all peptides, except for lipoyl-lysine biological peptides, which used a 12-70% B linear gradient. Data were imported into Skyline software (version 2.1) to obtain precursor extracted ion chromatographams (XICs) using the following settings: Isotope Count, 3; precursor mass analyzer, Orbitrap; Resolving power, 60,000 @ 400 Th. The retention times of substrate (modified) and product (unmodified) peptides were confirmed by fragmentation spectra and peak integration boundaries were manually inspected. Three biological replicates were analyzed for each reaction.
# The lipoamide cofactor bound to E2 (transferase enzymes) is required for dehydrogenase complex activity (FIG. 1b). Given that other mitochondrial SIRTs can hydrolyze various […] group lysine modifications^3,4 and that all PDHC components were present in our SIRT4 isolation, we speculated that E2 dehydrogenase components may be biological substrates of SIRT4, and that SIRT4 may directly hydrolyze the lipoamid modification. To test this we screened the in vitro activity of recombinant SIRT4 against differentially-modified synthetic peptides (FIG. 10). Firstly, SIRT4 activity towards acyl-modified H3K9 peptides (SEQ ID NOs: 3-5) was measured using a liquid-chromatography (LC)-MS-based deacylation assay. SIRT4 was incubated with H3K9 peptides modified with acetyl-lysine (SEQ ID NO: 5), biotinyl-lysine (SEQ ID NO: 4) or lipoyl-lysine (SEQ ID NO: 3), in the presence or absence of NAD. Following reaction, the remaining unreacted substrates and newly generated unmodified peptides were identified and quantified by LC-MS (FIG. 2A, 2G-2I and FIG. 5). […] To compare the relative preference of SIRT4 for these different substrates, we used extracted ion chromatograms to quantify unreacted substrate (S) and product (P) amounts from all reactions, and represented the percentage of unmodified peptide generated (FIG. 2H). […] The relative amount of unmodified product generated using 5 μM SIRT4 was 11% (lipoyl—SEQ ID NO: 3), 3% (biotinyl—SEQ ID NO: 4) and 0.3% (acetyl—[…]) (FIG. 2B and FIG. 2H, H3K9 substrates). […]
# SIRT3 = target: T2, SIRT3 (Homo sapiens, UniProt Q9NTG7); experiment: Steady-state kinetic analysis of SIRT3 with DLAT K259 peptides; type: biochemical
# T2 construct: purchased Sigma SRP0117-100UG
# T2 sequence (Q9NTG7 1-399): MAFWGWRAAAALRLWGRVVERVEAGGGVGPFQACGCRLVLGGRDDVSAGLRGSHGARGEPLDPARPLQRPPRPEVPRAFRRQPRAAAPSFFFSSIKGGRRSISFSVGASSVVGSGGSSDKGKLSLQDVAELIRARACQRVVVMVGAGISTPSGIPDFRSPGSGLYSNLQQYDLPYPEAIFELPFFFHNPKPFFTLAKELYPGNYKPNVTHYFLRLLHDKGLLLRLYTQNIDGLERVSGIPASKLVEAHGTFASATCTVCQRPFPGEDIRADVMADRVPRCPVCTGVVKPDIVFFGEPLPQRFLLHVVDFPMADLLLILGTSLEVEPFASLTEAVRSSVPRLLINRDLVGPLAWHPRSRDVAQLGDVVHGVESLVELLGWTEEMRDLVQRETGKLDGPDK
# SIRT5 = target: T3, SIRT5 (Homo sapiens, UniProt Q9NXA8); experiment: Kinetic analysis of SIRT5 with DLAT K259 peptides; type: biochemical
# T3 construct: purchased Sigma SRP0119-100UG
# T3 sequence (Q9NXA8 37-310): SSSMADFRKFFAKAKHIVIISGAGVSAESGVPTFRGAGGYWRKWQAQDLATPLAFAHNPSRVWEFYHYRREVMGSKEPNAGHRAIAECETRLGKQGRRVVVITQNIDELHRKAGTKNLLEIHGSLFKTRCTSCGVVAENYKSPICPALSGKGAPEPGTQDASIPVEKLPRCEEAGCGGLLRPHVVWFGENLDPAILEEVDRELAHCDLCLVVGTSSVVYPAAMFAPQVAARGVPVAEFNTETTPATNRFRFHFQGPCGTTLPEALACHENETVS
# SIRT4 mRNA = experiment: SIRT4 knock-down efficiency by qRT-PCR in MRC5 cells stably expressing shRNA; type: cell-based, human; details: MRC5 fibroblasts, mRNA level by qPCR; listed as construct #5
# From the text: SIRT4 shRNA expression. pLKO.1-puro vectors containing either non-targeting control shRNA or SIRT4-targeting shRNA were purchased from Sigma-Aldrich and are listed in FIG. 11. To generate MRC5 cells stably expressing each of the shRNA constructs, HEK293T cells were co-transfected with appropriate pLKO.1 vector, pCMVΔR8.2 (Addgene, plasmid #12263) and pMD2.G (Addgene, plasmid #12259) using FuGENE 6. Media containing lentivirus particles were used to transduce MRC5 cells, which were subsequently selected with 2 μg/mL puromycin (InvivoGen, cat. #ant-pr-1). Knockdown efficiency was measured by qRT-PCR and western blotting.
# qRT-PCR analysis. For qRT-PCR analysis, MRC5 cells were collected and washed with PBS. Total RNA was isolated from cell pellets using RNeasy Mini Kit (Qiagen, cat. #74104) and the concentration/purity determined by measuring the absorbance 260/280 nm using NanoDrop Spectrophotometer (Thermo Fisher Scientific). For cDNA synthesis, 1 μg of RNA from each sample was first treated with DNase I (Life Technologies, cat. #18068015) and then used as a template in the RETROscript kit (Life Technologies, cat. #AM1710). The cDNAs were mixed with appropriate primers listed in FIG. 12 and Power SYBR green PCR master mix (Life Technologies, cat. #4368706) for qRT-PCR on ABI 7900HT Real-Time Thermocycler (Applied Biosystems). […]
# [3] = SIRT4 enzyme concentration = 5 μM, NAD 1 mM, 25° C.
Substance,Km (SIRT4 [1]; [3]) [µM],kcat (SIRT4 [1]; [3]) [s⁻¹],increase in efficiency compared to H3K9 lipoyl (SIRT4 [1]; another experiment (Table 1)) [fold],increased efficiency compared to H3K9 lipoyl (SIRT4 [1]; first experiment) [fold],"efficiency of hydrolysis by SIRT4, fold more than deacetylation of MCD (SIRT4 [1]; versus MCD acetyl) [fold]",relative amount of unmodified product generated (SIRT4 [2]) [%],"SIRT3 efficiency, fold lower than for DLAT acetyl (SIRT3) [fold]",SIRT3 enzymatic activity (SIRT3),SIRT5 activity (SIRT5),SIRT4 knock-down (SIRT4 mRNA) [%]
DLAT K259 Lipoyl: synthetic DLAT K259 peptide with lipoyl-lysine (SEQ ID NO: 8) (EIETDK(lipoyl″)ATIGWW),239 ± 51,0.0016 ± 0.0001,3.3,3.5,~1270,33,13,some enzymatic activity,no activity was detected,
"shSIRT4 #5: SIRT4-targeting shRNA construct in pLKO.1-puro vector, purchased from Sigma-Aldrich (DNA CCGGACAGGGACTTTCACTTGAATCCTCGAGGATTCAAGTGAAAGTCCCTGTTTTTTG)",,,,,,,,,,> 80
